{"source": "paper PMC8556157", "target": "Type 4 LDH (BL105A_0985), aromatic lactate dehydrogenase (ALDH) of B. longum ssp. longum 105-A (Bifidobacterium longum ssp. longum 105-A) (UniProt Q8G593)", "assay": "SEC; native molecular mass of the purified recombinant enzyme estimated by size exclusion chromatography (Supplementary Fig. 7b); dimer of the 33.9 kDa chain", "data": [{"substance": "Type 4 LDH (BL105A_0985), aromatic lactate dehydrogenase (ALDH) of B. longum ssp. longum 105-A (from UniProt Q8G593 1-545) (enzyme)", "values": [{"measurement": "stoichiometry N", "value": 2}]}]}
